B1: mouse anti-IL6R monoclonal antibody 1A3 (antibody, V domains shown)
VH: QVQLQQPGAELVKPGASVKLSCKASGYTFTSYWMHWVKQRPAQGLEWIGEINPSNGRTNFNEKFKTKATLTVDKSSNTAYMQLSSLTSEDSAVYSCLRLNTHYVFDYWGQGTTLTVSS
VL: EIVLTQSPTTMAASPGEKITITCSASSSISSNYLHWYQQKPGFSPKLLISRTSNLASGVPTRFSGSGSGTSYSLTIGTMEAGDVATYYCQQGSGIPFTFGSGTKLEIK
notes: Mouse hybridoma mAb purified on Protein A
B2: mouse anti-IL6R monoclonal antibody 1B5 (antibody, V domains shown)
VH: B1 VH with A42G, F60Y, K63N, T66S, N77S, S95Y, L97A
VL: B1 VL with T10I, M11L, I21F, A25V, S50Y, T61A, G82E
notes: Mouse hybridoma mAb
B3: Tocilizumab (antibody, human IgG1, kappa, V domains shown)
VH: QVQLQESGPGLVRPSQTLSLTCTVSGYSITSDHAWSWVRQPPGRGLEWIGYISYSGITTYNPSLKSRVTMLRDTSKNQFSLRLSSVTAADTAVYYCARSLARTTAMDYWGQGSLVTVSS
VL: DIQMTQSPSSLSASVGDRVTITCRASQDISSYLNWYQQKPGKAPKLLIYYTSRLHSGVPSRFSGSGSGTDFTFTISSLQPEDIATYYCQQGNTLPYTFGQGTKVEIKR
notes: In house made; also called benchmark; Actemra
B4: mouse anti-IL6R monoclonal antibody 3C2 (antibody, V domains shown)
VH: QVQLQQPGTELVKPGASVKLSCKASGYTFTTYWIHWVKQRPGQGLEWIGEINPSNGRTNYNEHFKSKATLTVDKSSSTASMQLSSLTSADSAVYYCARLNTHYVFDSWGQGTTLTVSS
VL: B1 VL with S50Y, R62H, G82E
notes: Mouse hybridoma mAb
B5: mouse anti-IL6R monoclonal antibody 1G1 (antibody, V domains shown)
VH: QVQLQQPGAELVKPGASVKLSCKASGYTFTSYWMHWVKVRPGQGLEWIGEINPTNGRTNYNEDFKSKATLTVESSSSTAYMQFSSLTSEDSAVYYCARLNTHYVFDYWGQGTTLTVSS
VL: B1 VL with T10I, M11L, I21F, A25V, S50Y, T61A, G82E
notes: Mouse hybridoma mAb
B6: humanized antibody hu1H7-V5 (antibody, human IgG1, kappa, V domains shown)
VH: QVQLVQSGAEVKKPGASVKVSCKASGYTFTNYWMHWVRQAPGQGLEWIGEINPTNGRTNYNENFKSRVTLTVDTSTSTVYMELSSLRSEDTAVYYCARLNTHYVFDSWGQGTLVTVSS
VL: EIVLTQSPGTLSLSPGERATLSCSVSSSISSNYLHWYQQKPGLSPRLLISRTSTLASGIPARFSGSGSGTEYTLTISRMQSEDFAVYYCQQGSGIPFTFGQGTKLEIKR
notes: Human IgG1 / kappa
B7: mouse anti-IL6R monoclonal antibody 1H7 (antibody, V domains shown)
VH: B4 VH with T31N, I34M, E46D, S54T, H63N, S80Y, A89E, V116L
VL: B1 VL with M11L, I21F, A25V, N54T, T61A, G82E, I107L
notes: Mouse hybridoma mAb
B8: Chimeric 1H7 (antibody, human IgG1, kappa, V domains shown)
VH: B4 VH with T31N, I34M, E46D, S54T, H63N, S80Y, A89E, V116L
VL: EIVLTQSPTTLAASPGEKITFTCSVSSSISSNYLHWYQQKPGFSPKLLISRTSTLASGVPARFSGSGSGTSYSLTIGTMEAEDVATYYCQQGSGIPFTFGSGTKLELKR
notes: Mouse variable regions on human IgG1 / human kappa constant regions; also called chimeric antibody 1H7

Data on 8 molecules can be found in patent publication US20230167182A1 (BIOSION, published 2023).

Residue numbers refer to the chain shown, from its start.

T2 sequence (chain, as listed by the source limits assumed): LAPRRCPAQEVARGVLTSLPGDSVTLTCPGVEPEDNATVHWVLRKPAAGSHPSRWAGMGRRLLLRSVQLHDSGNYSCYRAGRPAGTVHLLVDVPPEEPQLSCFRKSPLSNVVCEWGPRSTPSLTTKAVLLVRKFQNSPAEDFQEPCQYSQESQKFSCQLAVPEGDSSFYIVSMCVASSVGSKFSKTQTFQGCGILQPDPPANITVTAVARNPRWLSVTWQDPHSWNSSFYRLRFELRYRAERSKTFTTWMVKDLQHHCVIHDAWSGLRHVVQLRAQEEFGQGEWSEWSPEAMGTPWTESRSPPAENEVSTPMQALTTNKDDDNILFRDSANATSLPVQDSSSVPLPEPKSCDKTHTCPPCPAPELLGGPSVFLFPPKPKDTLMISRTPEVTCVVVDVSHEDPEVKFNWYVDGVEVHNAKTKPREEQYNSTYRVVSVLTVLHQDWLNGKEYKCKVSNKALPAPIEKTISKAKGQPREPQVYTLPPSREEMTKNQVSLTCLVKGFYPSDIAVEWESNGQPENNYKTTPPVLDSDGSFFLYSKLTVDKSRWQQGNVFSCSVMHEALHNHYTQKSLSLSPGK

For the first experiment, the target named is T1, human IL6R expressed on cell surface (human, UniProt P08887 20-468).
T1 construct: whole, on cells; also called cell surface human IL6R; U266 cells expressing human IL6R
T1 sequence (looked up): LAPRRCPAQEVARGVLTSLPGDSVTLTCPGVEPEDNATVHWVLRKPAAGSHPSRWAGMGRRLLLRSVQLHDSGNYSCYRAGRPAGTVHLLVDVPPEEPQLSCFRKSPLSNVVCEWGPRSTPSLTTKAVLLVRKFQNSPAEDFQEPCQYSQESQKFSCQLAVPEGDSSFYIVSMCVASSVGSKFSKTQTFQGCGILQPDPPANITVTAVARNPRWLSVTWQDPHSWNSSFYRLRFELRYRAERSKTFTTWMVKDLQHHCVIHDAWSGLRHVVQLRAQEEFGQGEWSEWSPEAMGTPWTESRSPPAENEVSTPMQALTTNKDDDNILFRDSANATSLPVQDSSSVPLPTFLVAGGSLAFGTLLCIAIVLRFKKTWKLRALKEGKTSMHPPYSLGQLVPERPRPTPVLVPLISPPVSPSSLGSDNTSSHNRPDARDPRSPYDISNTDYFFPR
Put plainly: cell-based binding FACS on U266 cells. The protocol: (§1) The binding activities of the mouse anti-IL6R antibodies to IL6R expressed on cell surface were tested by flow cytometry (FACS). Briefly, human myeloma cells U266 (ATCC® TIB-196™) were harvested from cell culture flasks, washed twice and resuspended in phosphate buffered saline (PBS) containing 2% v/v Fetal Bovine Serum (FACS buffer). 2×10⁵ U266 cells per well were incubated in 96 well-plates with 100 μl of the anti-IL6R antibodies or controls at various concentrations (starting at 40 nM with a 3-fold serial dilution in FACS buffer) for 40 minutes on ice. Cells were washed twice with FACS buffer, and added with 100 μL/well R-Phycoerythrin AffiniPure F(ab′)₂ Fragment Goat Anti-Mouse IgG (H+L) (1:1000 dilution in FACS buffer, Jackson ImmunoResearch Laboratories, Inc., Cat #115-116-146). Following an incubation of 40 minutes at 4° C. in dark, cells were washed three times and resuspended in FACS buffer. Fluorescence was measured using a Becton Dickinson FACS Canto II-HTS equipment. Data was analyzed using Graphpad Prism software and EC₅₀ values were reported.
As to B1, the EC50 (in general, the concentration at which the effect is half-maximal) was 0.229 nM. In turn, B2 had an EC50 of 0.204 nM. Still for that read-out and setting: to B3 belongs 1.7 nM.

The target of the next experiment is T1, human IL6R expressed on cell surface. The experiment in a line: cell-based binding FACS on U266 cells. This is another data set of the same source. Here is the method:
as §1
B4 gave an EC50 of 0.286 nM.

Molecule B5 displayed an EC50 of 0.34 nM. Same read-out and setting: then B3, with 1.49 nM.

The target is the same in a further experiment. Put plainly: cell-based binding FACS on U266 cells. The source holds these as a separate data set. The protocol: as §1
For the cell-based binding FACS, R-Phycoerythrin AffiniPure Goat Anti-human IgG Fcγ fragment specific (Jackson ImmunoResearch Laboratories, Inc., Cat #109-115-098) was used instead of R-Phycoerythrin AffiniPure F(ab′)₂ Fragment Goat Anti-Mouse IgG (H+L), 1:1000 dilution in FACS buffer, 100 μl/well.
In turn, B6 displayed an EC50 of 0.417 nM. With B7, the EC50 came to 0.301 nM. Still for that read-out and setting: to B8 belongs 0.298 nM; to B3, 1.76 nM.

A further experiment has as its target T2, human IL6R-Fc protein (human, biotin-labeled in the ELISAs (sites not given)).
T2 construct: In house made; also called biotin-labeled human IL6R-Fc protein
The experiment in a line: capture ELISA: antibody captured on anti-IgG F(ab')2 coated plate, then biotin-labeled human IL6R-Fc, streptavidin-HRP. Here is the method:
For the capture ELISA, 96-well micro plates were coated with 2 μg/ml AffiniPure Goat Anti-Mouse IgG, F(ab′)₂ fragment specific (Jackson ImmunoResearch Laboratories, Inc., Cat #115-005-072) in PBS, 100 μl/well, and incubated for 2 hours at 37° C. Plates were washed once with wash buffer (PBS+0.05% v/v Tween-20, PBST) and then blocked with 200 μl/well blocking buffer (5% w/v non-fatty milk in PBST) overnight at 4° C. […] Plates containing captured anti-IL6R antibodies were incubated with biotin-labeled human IL6R-Fc protein (prepared in house, SEQ ID NO: 43, 39.5 ng/ml in 2.5% w/v non-fatty milk in PBST, 100 μl/well) for 40 minutes at 37° C., washed 4 times, and incubated with streptavidin conjugated HRP (1:10000 dilution in PBST, Jackson ImmunoResearch Laboratories, Inc., Cat #016-030-084, 100 μl/well) for 40 minutes at 37° C. After a final wash, plates were incubated with 100 μl/well ELISA substrate TMB (InnoReagents, Cat #TMB-S-002). The reaction was stopped 3-10 minutes later at room temperature with 50 μl/well 1M H₂SO₄, and the absorbance of each well was read on a microplate reader using dual wavelength mode at 450 nm for TMB and 630 nm as the reference wavelength. Then the OD (450-630) values were plotted against antibody concentration. Data was analyzed using Graphpad Prism software and EC₅₀ values were reported.
For the capture ELISA, AffiniPure Goat Anti-Human IgG, F(ab′)₂ fragment specific (Jackson Immuno Research, Cat #109-005-097) was used instead of AffiniPure Goat Anti-Mouse IgG, F(ab′)₂ fragment specific, 100 μl/well.
B7 showed an EC50 of 0.0553 nM. On the same count and under the same terms, then B8, with 0.078 nM; and B2, with 0.0627 nM; and B3, with 0.191 nM.
